The values that follow come from publication PMC7641730, “Structural basis of DNA replication origin recognition by human Orc6 protein binding with DNA”.

One data set concerns the target T1, HsOrc6-M (Homo sapiens, UniProt Q9Y5N6 95-187).
T1 sequence: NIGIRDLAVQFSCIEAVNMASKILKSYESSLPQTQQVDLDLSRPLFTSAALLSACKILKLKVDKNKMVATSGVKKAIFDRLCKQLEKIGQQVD
Description: NMR (2D NOESY of DNA); smaller shifts than with DBD; NMR: 50 mM sodium phosphate pH 6.5, 100 mM NaCl, 2 mM DTT, 298 K; ITC: 50 mM sodium phosphate pH 6.5, 100 mM NaCl, 25 C; EMSA: 25 mM Tris pH 8.0, 60 mM KCl, 5 mM MgCl2, 0.4 mM EDTA, 0.4 mM EGTA, 0.1% NP-40, 10% glycerol, 0.12 mg/ml BSA, room temperature 30 min. As to conditions: protein: recombinant; tags: none (N-terminal His-tag cleaved); blunt. (A gel shift assay detects complexes by their altered migration in electrophoresis.)

The target in a further data set is T2, HsOrc6 full length (Homo sapiens, UniProt Q9Y5N6 1-252).
T2 sequence: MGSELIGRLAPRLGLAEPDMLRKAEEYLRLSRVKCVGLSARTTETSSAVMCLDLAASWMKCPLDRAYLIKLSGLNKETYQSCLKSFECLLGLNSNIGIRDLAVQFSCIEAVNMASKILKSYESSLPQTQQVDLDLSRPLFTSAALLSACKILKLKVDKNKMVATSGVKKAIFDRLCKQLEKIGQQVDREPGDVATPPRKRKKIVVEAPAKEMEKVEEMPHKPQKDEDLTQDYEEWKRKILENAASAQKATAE
The experiment in a line: NMR titration (1H,15N-HSQC); range over residues; NMR: 50 mM sodium phosphate pH 6.5, 100 mM NaCl, 2 mM DTT, 298 K; ITC: 50 mM sodium phosphate pH 6.5, 100 mM NaCl, 25 C; EMSA: 25 mM Tris pH 8.0, 60 mM KCl, 5 mM MgCl2, 0.4 mM EDTA, 0.4 mM EGTA, 0.1% NP-40, 10% glycerol, 0.12 mg/ml BSA, room temperature 30 min. The following applies: protein: recombinant; tags: none (N-terminal His-tag cleaved with 3C); blunt.

The target in a further data set is T3, HsOrc6-DBD (Homo sapiens, UniProt Q9Y5N6 95-207).
T3 sequence: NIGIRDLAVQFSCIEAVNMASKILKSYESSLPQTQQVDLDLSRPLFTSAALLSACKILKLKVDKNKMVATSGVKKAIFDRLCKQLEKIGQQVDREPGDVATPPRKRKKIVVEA
The experiment in a line: NMR titration (1H,15N-HSQC); range over residues: K169 47.1±1.4, A170 57.7±1.1, R200 9.92±2.91, I203 11.3±1.5; NMR: 50 mM sodium phosphate pH 6.5, 100 mM NaCl, 2 mM DTT, 298 K; ITC: 50 mM sodium phosphate pH 6.5, 100 mM NaCl, 25 C; EMSA: 25 mM Tris pH 8.0, 60 mM KCl, 5 mM MgCl2, 0.4 mM EDTA, 0.4 mM EGTA, 0.1% NP-40, 10% glycerol, 0.12 mg/ml BSA, room temperature 30 min. The following applies: protein: recombinant; tags: none (N-terminal His-tag cleaved); blunt.

B1: 10-bp AT-rich DNA (dsDNA)
DNA 1: TTTAAAAAGT
DNA 2: ACTTTTTAAA
With B1, in the data set with HsOrc6-M, the binding result is reported as “binds”.

B2: 17-bp AT-rich DNA (dsDNA)
DNA 1: GGCCCTTTTTTTTCTAG
DNA 2: CTAGAAAAAAAAGGGCC
One may read the Kd as a measure of binding affinity in units of concentration. Regarding B2, the equilibrium dissociation constant (Kd) with HsOrc6 full length is 44.5 µM; with HsOrc6-DBD it was 23.9 µM.
